From patent publication US12528864 (GlaxoSmithKline, dated 2026) come the findings set out here.

Assay [1] has as its target T1, human CD96v2 expressed on cells (CHO cells; transiently transfected HEK cells) (human, UniProt P40200-2 22-569).
T1 construct: whole, on cells; the cell is named under assay; also called CHO-huCD96; hCD96v2
T1 sequence (looked up): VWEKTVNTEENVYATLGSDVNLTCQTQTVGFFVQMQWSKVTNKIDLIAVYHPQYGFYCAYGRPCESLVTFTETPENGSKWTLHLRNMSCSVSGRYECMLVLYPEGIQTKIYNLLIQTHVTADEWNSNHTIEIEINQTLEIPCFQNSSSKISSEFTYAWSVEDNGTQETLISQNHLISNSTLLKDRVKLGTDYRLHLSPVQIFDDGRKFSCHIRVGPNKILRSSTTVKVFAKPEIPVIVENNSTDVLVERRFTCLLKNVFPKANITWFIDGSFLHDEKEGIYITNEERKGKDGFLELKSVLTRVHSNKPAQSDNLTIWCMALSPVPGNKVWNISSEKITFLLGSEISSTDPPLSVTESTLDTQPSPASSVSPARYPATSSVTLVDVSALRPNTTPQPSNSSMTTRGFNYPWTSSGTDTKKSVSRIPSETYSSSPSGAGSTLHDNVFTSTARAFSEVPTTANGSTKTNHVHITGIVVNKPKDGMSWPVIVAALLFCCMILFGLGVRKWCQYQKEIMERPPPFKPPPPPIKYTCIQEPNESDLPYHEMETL
Kind of assay: flow cytometry on transiently transfected HEK cells (Human CD96v2).

Assay [2] addresses T2, recombinant cynomolgus monkey CD96v2 (cynomolgus monkey, UniProt A0A2K5TWV6 22-487, biotinylated (site not stated)).
T2 construct: Soluble recombinant protein used in MSD-SET; also called cynomolgus monkey biotinylated CD96 protein
T2 sequence: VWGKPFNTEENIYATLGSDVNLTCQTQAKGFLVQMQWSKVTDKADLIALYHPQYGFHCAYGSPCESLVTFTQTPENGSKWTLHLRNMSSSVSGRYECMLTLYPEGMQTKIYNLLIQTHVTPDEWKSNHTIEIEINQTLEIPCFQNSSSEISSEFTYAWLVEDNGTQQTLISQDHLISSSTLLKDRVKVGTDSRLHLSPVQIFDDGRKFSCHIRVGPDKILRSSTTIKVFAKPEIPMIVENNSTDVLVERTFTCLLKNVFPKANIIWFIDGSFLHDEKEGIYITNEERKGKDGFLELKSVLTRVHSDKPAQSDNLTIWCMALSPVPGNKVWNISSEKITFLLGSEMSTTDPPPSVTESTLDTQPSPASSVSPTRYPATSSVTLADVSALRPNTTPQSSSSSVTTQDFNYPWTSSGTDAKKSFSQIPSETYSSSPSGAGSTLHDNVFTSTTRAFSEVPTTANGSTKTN
Nature of the assay: MSD solution equilibrium titration (MSD-SET), 25 C.

In assay [3] the target is T3, recombinant murine CD96v2 (mouse, UniProt Q3U0X8 22-536, limits assumed).
T3 construct: Soluble recombinant protein used in MSD-SET; also called mouse CD96
T3 sequence (looked up): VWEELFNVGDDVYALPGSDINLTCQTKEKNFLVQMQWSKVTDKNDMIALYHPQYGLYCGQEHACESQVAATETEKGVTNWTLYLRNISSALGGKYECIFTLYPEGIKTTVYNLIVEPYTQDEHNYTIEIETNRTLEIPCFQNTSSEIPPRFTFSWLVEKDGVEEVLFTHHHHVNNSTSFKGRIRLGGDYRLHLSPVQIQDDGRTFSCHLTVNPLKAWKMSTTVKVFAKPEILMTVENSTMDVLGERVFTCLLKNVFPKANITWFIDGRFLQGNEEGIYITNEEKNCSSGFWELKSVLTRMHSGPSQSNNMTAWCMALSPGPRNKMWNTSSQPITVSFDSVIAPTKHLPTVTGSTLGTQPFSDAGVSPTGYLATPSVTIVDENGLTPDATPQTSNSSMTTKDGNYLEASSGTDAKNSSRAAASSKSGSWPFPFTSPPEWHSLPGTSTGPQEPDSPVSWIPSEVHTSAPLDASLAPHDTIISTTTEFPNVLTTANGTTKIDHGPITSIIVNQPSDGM
Nature of the assay: MSD solution equilibrium titration (MSD-SET), 25 C.

In a further assay the target is T4, recombinant human CD96v2 (human, UniProt P40200-2 22-503, limits assumed, biotinylated (site not stated)).
T4 construct: Soluble recombinant protein used in MSD-SET; also called Biotinylated human CD96 protein
T4 sequence (looked up): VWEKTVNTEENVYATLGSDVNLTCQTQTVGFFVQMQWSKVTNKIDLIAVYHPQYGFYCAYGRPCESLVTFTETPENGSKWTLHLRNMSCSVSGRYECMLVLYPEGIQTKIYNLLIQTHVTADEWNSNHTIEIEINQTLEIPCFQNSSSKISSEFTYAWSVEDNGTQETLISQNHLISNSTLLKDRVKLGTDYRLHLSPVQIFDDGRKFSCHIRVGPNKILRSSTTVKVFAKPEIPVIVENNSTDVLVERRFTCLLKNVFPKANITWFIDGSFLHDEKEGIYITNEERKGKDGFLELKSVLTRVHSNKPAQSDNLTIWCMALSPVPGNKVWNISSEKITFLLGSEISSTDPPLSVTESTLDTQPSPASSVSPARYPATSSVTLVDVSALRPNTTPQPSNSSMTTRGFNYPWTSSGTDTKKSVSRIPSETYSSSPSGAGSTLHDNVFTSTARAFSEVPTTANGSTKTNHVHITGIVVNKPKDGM
Kind of assay: MSD solution equilibrium titration (MSD-SET), 25 C.

The target in assay [4] is T5, cynomolgus monkey CD96, native, on primary cynomolgus monkey T cells (cynomolgus monkey, UniProt A0A2K5TWV6 22-569).
T5 construct: whole, on cells
T5 sequence: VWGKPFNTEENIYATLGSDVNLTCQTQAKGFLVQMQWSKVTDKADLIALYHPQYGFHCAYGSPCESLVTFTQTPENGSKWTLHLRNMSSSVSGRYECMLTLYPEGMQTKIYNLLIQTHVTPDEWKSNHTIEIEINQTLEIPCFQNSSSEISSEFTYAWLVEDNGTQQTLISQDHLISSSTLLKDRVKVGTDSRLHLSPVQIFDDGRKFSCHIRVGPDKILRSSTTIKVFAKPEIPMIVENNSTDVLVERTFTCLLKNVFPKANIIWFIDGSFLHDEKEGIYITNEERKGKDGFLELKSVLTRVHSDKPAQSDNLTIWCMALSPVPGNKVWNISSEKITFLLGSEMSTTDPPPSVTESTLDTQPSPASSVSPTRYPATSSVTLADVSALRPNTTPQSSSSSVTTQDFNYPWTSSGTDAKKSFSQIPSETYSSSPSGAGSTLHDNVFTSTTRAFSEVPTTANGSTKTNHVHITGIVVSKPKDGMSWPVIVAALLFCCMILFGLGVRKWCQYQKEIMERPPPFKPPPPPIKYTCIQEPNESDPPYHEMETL
Kind of assay: flow cytometry on activated cynomolgus monkey CD3+ T cells; mean of 3 samples; cynomolgus monkey CD3+ T cells activated with anti-CD2/3/28 beads for 17 days; mean of 3 samples.

B1: 42Y073-86F08-66 (antibody)
heavy: not shown
light: DIQLTQSPSSLSASVGDRVTITCRASQSISSYLNWYQQKPGKAPKLLIYAASSLQSGVPSRFSGSGSGTDFTLTISSLQPEDFATYYCQQVLHTITFGGGTKVEIKRTVAAPSVFIFPPSDEQLKSGTASVVCLLNNFYPREAKVQWKVDNALQSGNSQESVTEQDSKDSTYSLSSTLTLSKADYEKHKVYACEVTHQGLSSPVTKSFNRGEC
notes: also called GSK 6097608; GSK6097608
In the case of B1, in assay [1], the “EC50 (read off the curve)” value is about 5 nM. Also, the Kd in assay [2] was found to be 0.278 nM; in assay [3], 0.479 nM; with recombinant human CD96v2, 0.02 nM. The same molecule showed an EC50 in assay [4] of 0.0766 nM.

As usually defined, the EC50 (read off the curve) is the concentration giving half of the maximal effect. As usually defined, the Kd is a measure of binding affinity in units of concentration. As a reminder, the EC50 is the concentration that produces a half-maximal response.
